US20260193317A1, “COMBINATION THERAPY WITH ACTRIIB RECEPTOR VARIANTS AND GLP-1 AGONISTS” (35PHARMA Inc., priority 2023, published 2026)

T1: activin B (UniProt P09529 293-407)
T1 sequence (looked up): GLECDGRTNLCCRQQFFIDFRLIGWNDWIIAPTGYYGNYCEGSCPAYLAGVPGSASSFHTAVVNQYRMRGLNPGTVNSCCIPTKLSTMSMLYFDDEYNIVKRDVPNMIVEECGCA

T2: recombinant human activin A (human, UniProt P08476 311-426)
T2 sequence (looked up): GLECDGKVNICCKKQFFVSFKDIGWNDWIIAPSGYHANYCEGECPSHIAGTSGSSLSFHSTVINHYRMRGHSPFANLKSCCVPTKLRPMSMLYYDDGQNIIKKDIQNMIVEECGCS

T3: BMP-9 (UniProt Q9UK05 320-429)
T3 sequence (looked up): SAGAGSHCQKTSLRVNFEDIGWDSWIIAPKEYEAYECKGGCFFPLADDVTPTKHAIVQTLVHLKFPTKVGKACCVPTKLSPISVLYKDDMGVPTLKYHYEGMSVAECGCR

T4: BMP-10 (UniProt O95393 317-424)
T4 sequence (looked up): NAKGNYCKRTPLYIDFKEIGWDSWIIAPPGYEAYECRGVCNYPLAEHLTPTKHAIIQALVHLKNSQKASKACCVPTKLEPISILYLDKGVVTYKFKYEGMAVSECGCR

T5: BMP-9 (Homo sapiens, UniProt Q9UK05)
T5 sequence (Q9UK05 320-429): T3 sequence (looked up)

B1: P1375 (Fc fusion)
chain: ETRECIYYNANWELERTNQSGLERCEGEQDKRWHCYASWRNSSGTIELVKKGCWLDDFNCYDRQECVATEENPQVYFCCCEGNFCNERFTHLPEAGGPEVTYEPPPTGGGGSGGGGSGGGGSGGGGTHTCPPCPAPELLGGPSVFLFPPKPKDTLYITREPEVTCVVVDVSHEDPEVKFNWYVDGVEVHNAKTKPREEQYNSTYRVVSVLTVLHQDWLNGKEYKCKVSNKALPAPIEKTISKAKGQPREPQVYTLPPSRDELTKNQVSLTCLVKGFYPSDIAVEWESNGQPENNYKTTPPVLDSDGSFFLYSKLTVDKSRWQQGNVFSCSVMHEALHNHYTQKSLSLSPG
B2: P1375: hActRIIB L33W, 19 aa linker, IgG1 YTE-DL Fc; SEQ ID 234 (protein)
chain: B1 chain

How the values were obtained:
[1] = SEC-HPLC monomer and HMW content of purified fusion proteins; type: physicochemical; conditions: after Protein A purification
Source text: Given that protein aggregation can be indicative of reduced conformational stability and decreased activity, Size-Exclusion Chromatography-High Performance Liquid Chromatography (SEC-HPLC) was used to determine the purity of each ActRIIB-ECD construct. This method measured the percentage of intact monomeric species as well as the presence of aggregates and/or degradation products.
All proteins expressed efficiently in CHO and/or 293 cells and purification efficiency of each using Protein A affinity chromatography was similar.

[2] = Single-injection body weight gain in wild-type mice; type: in vivo; conditions: single 25 mg/kg subcutaneous injection, after 4 days, vs vehicle
Method: To investigate the target engagement of exemplary ActRIIB-ECD polypeptide constructs in vivo, mice (n=6/group) were injected with given agents (25 mg/kg, subcutaneous injection), and sacrificed after 4 days to assess body weight gain.

[3] = tested on: diet-induced obese (DIO) mice; test: Body composition and metabolism in diet-induced obese (DIO) mice; type: in vivo; conditions: 3 weeks s.c., P75, P1229 25 mg/kg twice weekly, P1373 5, 20, 50 mg/kg twice weekly, P1307 20 mg/kg weekly
Method: Experiments were performed to assess the effects of P1229 on body composition and metabolism in diet-induced obese (DIO) mice. DIO mice were purchased from Jackson Laboratories (#380050). Briefly, mice were fed a high-fat diet (HFD, 60% kcal from fat) from 6 weeks of age until 22 weeks of age (total of 16 weeks on the HFD). […] After 3 weeks of treatments, some animals were sacrificed and scanned by EchoMRI […] (FIGS. 11A-F), while others were sacrificed for tissue collection and RNA analysis. Animals were maintained on the HFD throughout the acclimatization and treatment periods. The murine version of bimagrumab used for these experiments comprises the heavy chain amino acid sequence of SEQ ID NO: 376 and the light chain sequence of SEQ ID NO: 377.

[4] = Skeletal muscle mass and Mss51 expression in lean mice; type: in vivo; conditions: 25 mg/kg twice weekly, seven days
Method: The effects of P1229 on body composition and metabolism in lean mice were further assessed.
Additional assays were performed to assess the relative expression level of Mss51, a skeletal muscle-specific gene. Mss51 is a key target of myostatin signaling, with a role in fatty acid oxidation, glycolysis, and oxidative phosphorylation.

GDF-8 = GDF-8 (UniProt O14793 267-375); test: cell-based or functional assay
GDF-11 = GDF-11 (UniProt O95390 299-407); test: cell-based or functional assay
activin B = target: T1, activin B; test: cell-based or functional assay
[5] = target: T2, recombinant human activin A; test: cell-based or functional assay
BMP-9 [6] = target: T3, BMP-9; test: cell-based or functional assay
BMP-10 = target: T4, BMP-10; test: cell-based or functional assay
BMP-9 [7] = target: T5, BMP-9; test: Small-scale BMP-9 ELISA with CHO supernatants; type: binding; conditions: BMP-9 10 ng/mL
Method: Small-scale testing of ActRIIB-ECD fusion proteins. Additional investigation of a series of exemplary agents was performed using proteins expressed in CHO cells. Briefly, DNA encoding the ActRIIB-ECD-Fc fusion constructs was transfected in cells seeded in 12-well plates in a final volume of 1 ml. After 7 days, the supernatant was harvested, clarified, and the amount of expressed protein in each well was quantified using standard methods. The potency of each agent for inhibition of activin A, BMP-9 and BMP-10 was determined in three separate assays.
The next day, the plate was washed three times. […] Expressed proteins in the supernatants were diluted 1 in 2 in assay diluent (0.5% BSA, 0.05% tween-20 in PBS) and 100 μl was added to the 96-well plate in technical duplicates. After a 1.5-hour incubation at RT, the plate was washed three times. […] In this assay, a loss of signal indicates less binding of the exemplary agent to BMP-9. Results are expressed as a % of the signal obtained with wild-type ActRIIB-Fc (P75).

TGFβ superfamily ligands = test: Neutralization profile across TGFβ superfamily ligands (HEK293 and HepG2 reporter assays, summary); type: cell-based, human
Method: Potency testing by neutralization on cell-based assays. Characterization of the activin A, activin B, GDF-8, and GDF-11 inhibition potency (IC50) of the fusion proteins was performed using a cell-based reporter assay. TGFβ-reporter HEK293 cells were obtained from InvivoGen (San Diego, CA, cat. no. hkb-tgfb) and were maintained following the manufacturer's instructions. Briefly, cells were grown in high-glucose DMEM, containing 10% heat-inactivated FBS, 30 μg/mL blasticidin, 250 μg/mL hygromycin B, and 100 μg/mL zeocin (hereafter, “growth medium”). Once the cells reached 70-80% confluence, they were detached in growth medium by gently tapping on the flask. For all assays, cells were seeded in 96-well plates at a density of 20,000 cells per well in growth medium. Cells were left to attach for 10 minutes at room temperature (RT) prior to being transferred to a 37° C. incubator (5% CO2) overnight. The next day, treatments were prepared by combining the appropriate concentration of agent with activin A, activin B, GDF-8, or GDF-11 for 30 min at RT (shaking at 150 rpm). Treatments were conducted in high-glucose DMEM (serum-free and with no selection agents), and the final concentration of cytokine (ligand) was 0.3 nM. Growth medium was removed from the culture plates, and cells were treated with the appropriate mixes of fusion protein and cytokine. Treatment duration was for 18-22 h at 37° C. (5% CO2). All treatments were performed in technical duplicates and at least one or two independent experiments were conducted for each cytokine. At the end of the treatment period, supernatants were transferred to a new plate, and centrifuged at 300 RPM for 3 min. Forty microlitres of supernatant from each condition was transferred to a new plate, into which 180 μL of Quanti-Blue reagent (InvivoGen, cat. no. rep-qbs) was added. Quanti-Blue reagent was prepared following the manufacturer's instructions. Samples were incubated for 45 min at 37° C. At the end of the incubation, absorbance was read at 650 nm. The data were plotted in GraphPad Prism, which was used to calculate IC50 values as a non-linear regression.
Characterization of the BMP-9 and BMP-10 inhibition potency (IC50) of the fusion proteins was performed using a second cell-based reporter assay. Human hepatic HepG2 cells were transfected with a SEAP-encoding plasmid, in which SEAP expression is under the control of the murine Id1 promoter. A stable pool was generated from this transfection. Cells were grown in EMEM, containing 10% heat-inactivated FBS and 200 μg/mL zeocin (hereafter, “HepG2 growth medium”). […] For all assays, cells were seeded in 96-well plates at a confluence of 100,000 cells per well in HepG2 growth medium. Cells were left to attach for 10 minutes at RT prior to being transferred to a 37° C. incubator (5% CO2) overnight. The next day, treatments were prepared in EMEM (2.5% heat-inactivated FBS and with no selection agents) by combining the appropriate concentration of agent with BMP-9 or BMP-10 for 30 min at RT (shaking at 150 rpm). Treatments were conducted in EMEM (2.5% heat-inactivated FBS and with no selection agents), and the final concentration of BMP-9 and BMP-10 was 2 ng/mL and 40 ng/mL, respectively. HepG2 growth medium was removed from the culture plates, and cells were treated with the appropriate mixes of fusion protein and cytokine. Treatment duration was for 20-24 h at 37° C. (5% CO2). […]

Chain of GDF-11 (O95390 299-407 limits assumed): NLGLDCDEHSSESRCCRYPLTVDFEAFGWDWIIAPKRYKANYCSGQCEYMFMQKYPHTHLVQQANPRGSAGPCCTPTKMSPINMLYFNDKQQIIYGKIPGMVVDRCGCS

Molecule | high molecular weight (HMW) content (SEC-HPLC) [1] [%] | monomer content (SEC-HPLC) [1] [%] | body weight gain [2] | fat mass and lean mass (EchoMRI) [3] | tibialis anterior and gastrocnemius weight [4] | GDF-8 IC50; TGFβ-reporter HEK293 cells (GDF-8) [nM] | GDF-11 IC50; TGFβ-reporter HEK293 cells (GDF-11) [nM] | Activin B IC50; TGFβ-reporter HEK293 cells (activin B) [nM] | Activin A IC50; TGFβ-reporter HEK293 cells [5] [nM] | BMP-9 IC50; BMP-reporter HepG2 cells (BMP-9 [6]) [nM] | BMP-10 IC50; BMP-reporter HepG2 cells (BMP-10) [nM] | BMP-9 binding, ELISA signal relative to P75 (BMP-9 [7]) | impact of modifications in the Fc sequence on activin A, activin B, GDF-8, and GDF-11 potency (TGFβ superfamily ligands; all ligands) | impact of modifications in the Fc sequence on BMP-9 and BMP-10 potency (TGFβ superfamily ligands; both ligands)
P75: human wild type ActRIIB-ECD linked to human IgG1 Fc domain by a triple glycine linker; SEQ ID NO: 171; benchmark [reference compound] | 16 | 84 | statistically significant body weight gain | promoted lean mass gain but less fat loss | significantly increased | – | – | – | – | – | – | – | – | –
B1 | – | – | – | – | – | 0.33 | 0.39 | 2 | 0.53 | > 1000 | > 100 | – | – | –
B2 | 0 | 99 | – | – | – | – | – | – | – | – | – | near-undetectable binding to BMP-9 | comparable to P1373 | comparable to P1373
